In the Human Domainome abundance scans (Beltran et al. 2025):

B1: Pre-mRNA-processing factor 40 homolog B, residues 274 to 332; numbered along this chain, Q6NWY9 (parent)
chain: SNREKAKQAFKELLRDKAVPSNASWEQAMKMVVTDPRYSALPKLSEKKQAFNAYKAQRE

Variants of: B1
Test: abundance fitness (aPCA) (normalised: wild type 0, dead -1); higher = more abundant; growth selection in yeast, the domain comes from the species named
Settings: Homo sapiens

Abundance fitness: each site, then its substitutions
P20: A -0.451 | D -0.395 | C -0.59 | E -0.364
K17: P -0.573 | F -0.146 | M -0.038 | D -0.72 | S -0.365 | C -0.38 | I -0.651 | N -0.07 | Q -0.213 | R -0.107 | E -0.437 | A -0.106 | H -0.239 | G -0.599 | L -0.605 | Y -0.189 | V -0.525 | T -0.429
K11: P -0.322 | W 0.082 | A 0.145 | Q 0.343 | E 0.004 | I 0.233 | C 0.061 | L 0.159 | G -0.16 | R -0.03 | T 0.217 | H -0.17 | N -0.137 | Y -0.155 | D -0.386 | F 0.061 | S -0.001
V19: E -0.375 | L -0.606 | I -0.462 | A -0.612 | T -0.231 | D -0.295 | C -0.583 | W -0.589 | F -0.932 | M -0.32 | H -0.938 | Y -0.992 | R -0.633 | N -0.598 | G -0.479 | Q -0.383 | K -0.807 | S -0.533 | P -0.477
R15: L -0.097 | G -0.211 | F 0.019 | E 0.046 | H 0.064 | N 0.015 | I -0.052 | A 0.001 | Q -0.062 | M 0.219 | V -0.001 | K -0.129 | P -0.593 | C -0.171 | S -0.214 | W -0.106 | D -0.238 | Y -0.091
F10: Y -0.282 | V -0.511 | W -0.869
A18: T -0.282 | I -0.536 | E -0.012 | P -0.606 | C 0.007 | W -0.473 | L -0.127 | V -0.367 | Y -0.656 | D 0.045 | H 0.074 | M -0.096 | K -0.043 | Q 0.101 | N -0.067 | F -0.539 | R -0.035 | S -0.089
D16: F -1.05 | V -0.716 | W -0.579 | Q -0.443 | A -0.461 | S -0.486 | H -1.03 | T -0.351 | K -0.699 | N -1.23 | R -0.7 | M -1.03 | L -0.584 | C -0.933 | Y -0.888 | P -0.875
L14: T -0.547 | S -0.384 | H -0.573 | A -0.452 | R -0.71 | I -1.05 | N -0.376 | Q -0.339 | C -0.483 | W -0.963 | K -0.408 | F -0.683 | G -0.403 | D -0.504 | Y -0.925 | M -0.639 | E -0.339 | P -0.261 | V -0.385
E12: Q -0.249 | S -0.283 | L -0.632 | C -0.602 | K -0.469 | N -0.128 | F -0.718 | Y -0.817 | D -0.152 | G -0.491 | H -0.297 | V -0.705 | A -0.231 | R -0.62 | W -1.15 | P -0.988 | T -0.301 | M -0.705
L13: N -0.482 | K -0.388 | Q -0.286 | M 0.122 | W -1.02 | R -0.491 | H -0.411 | D -0.262 | I -1.12 | E -0.377 | T -0.48 | G -0.331 | V -0.511 | Y -0.559 | A -0.327 | F -0.668 | C -0.244
